We go through two substances from patent EP4509522A1.

The target of the test is human recombinant TGFβ1 (Peprotech) (human) (UniProt P01137). Nature of the test: cell-based or functional assay.
human recombinant TGFβ1 (Peprotech) (human), sequence (P01137 279-390 limits assumed): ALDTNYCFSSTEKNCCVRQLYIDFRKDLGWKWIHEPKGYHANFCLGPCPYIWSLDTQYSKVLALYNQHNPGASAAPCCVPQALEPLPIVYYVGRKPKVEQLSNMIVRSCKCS

As for “BM3, truncated version of TGFβRII (from UniProt P37173 23-199) (receptor)”, the fold-change in IFNy secretion, sub-optimal aCD3/aCD28 beads (1:300) + 10 ng/ml TGFβ versus beads alone stood at 0.7 fold and the fold-change in IFNy secretion, αCD3/αCD28 beads (1:100) + 10 ng/ml TGFβ versus beads alone came out at 0.87 fold.

For the substance “BM2, ectodomain of TGFβ receptor II (TGFβRII) with transmembrane and intracellular domains of CD137 (from UniProt P37173 23-166; Q07011 187-255)”, the fold-change in IFNy secretion, sub-optimal aCD3/aCD28 beads (1:300) + 10 ng/ml TGFβ versus beads alone was found to be 1.9 fold and the fold-change in IFNy secretion, αCD3/αCD28 beads (1:100) + 10 ng/ml TGFβ versus beads alone worked out at 1.2 fold.
